Assay results published in doi:10.1101/2023.08.11.552962.
Values belong to the substance of their own block, whether it stands above or below them.

Assays:
[1] = biological target: MacMCM, minichromosome maintenance protein from Mancarchaeum acidiphilum (Mancarchaeum acidiphilum); assay: SEC
[2] = biological target: MacMCM^E391Q, Walker B mutant of MacMCM (Mancarchaeum acidiphilum); assay: SEC
[3] = biological target: MacMCM^ΔWHD.E391Q, MacMCM without the winged helix domain and with the Walker B mutation E391Q (Mancarchaeum acidiphilum); assay: SEC
[4] = biological target: MacMCM^ΔWHD.E391Q, MacMCM without the winged helix domain and with the Walker B mutation E391Q (Mancarchaeum acidiphilum); assay: crystal structure

stoichiometry N [1]: 6
Substance: MacMCM, minichromosome maintenance protein from Mancarchaeum acidiphilum (enzyme)

stoichiometry N [2]: 6
Substance: MacMCM^E391Q, Walker B mutant of MacMCM (enzyme)

stoichiometry N [3]: 6 | stoichiometry N [4]: 6
Substance: MacMCM^ΔWHD.E391Q, MacMCM without the winged helix domain and with the Walker B mutation E391Q (domain or fragment)
